# Target: recombinant human IL-13 (human, UniProt P35225 35-146)
# Experiment: cell-based or functional assay
# Sequence of recombinant human IL-13 (P35225 35-146 limits assumed): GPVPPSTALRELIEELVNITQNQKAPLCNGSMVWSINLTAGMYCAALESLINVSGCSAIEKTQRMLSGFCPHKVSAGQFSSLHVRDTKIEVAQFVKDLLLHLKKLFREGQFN
row,Binder,"HEK-IL-13 [nM] (IC50, STAT6 reporter)"
1,"BDG38.084 (antibody, V domains shown) VH: QMQLVESGGGVVQPGRSLRLSCAASGFAFRTYGMHWVRQAPGKGLEWVAVIWDDGSNTHYADSVKGRFTITRDNSKNTLNLQMNSLRAEDTAVYYCVRAPQWYLTAEAFDLWGQGTMVTVSS VL: SYVLTQPPSVSVAPGETATITCGGNLIGAYLVHWYQQKPGQAPVLVVYDDVDRPDRIPERFSGSNSGNTATLTISRVEAGDEADYYCQVWDHSTNTMVFGGGTKLTVL",0.0419
2,"BDG38.100 (antibody, V domains shown) VH: QMQLVESGGGVVQPGRSLRLSCAASGFEFRTYGMHWVRQAPGKGLEWVGVIWYDGSNTHYADSVKGRFTITRDNSKNTLNLQMNSLRVEDTAVYYCVRAPQWYLTAEAFDLWGQGTMVTVSS VL: SYVLTQPPSVSVAPGETARITCGGNLIGARLVHWYQQKPGQAPVLVIYDDSDRPSRIPERFSGSNIGNTATLTIERVEEGDEADYYCQVWDYYSNSYVFGGGTKLTVL",0.0801
3,"BDG38.089 (antibody, V domains shown) VH: QMQLVESGGGVVQPGRSLRLSCAASGFEFRTYGMHWVRQAPGKGLEWVGVIWYDGSATHYADSVKGRFTITRDNSKNTLNLQMNSLRVEDTAVYYCVRAPQWYLTAEAFDLWGQGTMVTVSS VL: SYILTQPPSVSVAPGETATITCGGNLIGARLVHWYQQKPGQAPVLVIYDDSDRPSRIPERFSGSNIGNTATLTISRVEEGDEADYYCQVWDHSSNHYVFGGGTKLTVL",0.075
4,"BDG38.088 (antibody, V domains shown) VH: QMQLVESGGGVVQPGRSLTLSCAASGFEFRTYGMHWVRQAPGKGLEWVGVIWYDGSNTHYADSVKGRFTITRDNSKNTLNLQMNSLRVEDTAVYYCVRAPQWYLTAEAFDLWGQGTMVTVSS VL: SYVLTQPPSVSVAPGETATITCGGNLIGARLVHWYQQKPGQAPVLVIYDDSDRPSRIPERFSGSNIGNTATLTISDVEAGDEADYYCQVWDYSSNTYVFGGGTKLTVL",0.0486
5,"BDG38.121 (antibody, V domains shown) VH: QMQLVESGGGVVQPGRSLRLSCAASGFEFRTYGMHWVRQAPGKGLEWVGVIWYDGSNTHYADSVKGRFTITRDNSKNTLNLQMNSLRAEDTAVYYCVRAPQWYLTAEAFDLWGQGTMVTVSS VL: SYILTQPPSVSVAPGETATITCGGNLIGARLVHWYQQKPGQAPVLVIYDDSDRPSRIPERFSGSNIGNTATLTISRVEAGDEADYYCQVWDYSSNTYVFGGGTKLTVL",0.0562
6,"BDG38.109 (antibody, V domains shown) VH: QMQLVESGGGVVQPGRSLRLSCAASGFEFRTYGMHWVRQAPGKGLEWVGVIWYDGSNTHYADSVKGRFTITRDNSKNTLNLQMNSLRAEDTAVYYCVRAPQWYLTAEAFDLWGQGTMVTVSS VL: SYILTQPPSVSVAPGQTATITCGGNLIGARLVHWYQQKPGQAPVLVIYDDSDRPSRIPERFSGSNIGNTATLTIERVEEGDEADYYCQVWDYSSNSYVFGGGTKLTVL",0.063
7,"BDG38.102 (antibody, V domains shown) VH: QMQLVESGGGVVQPGRSLRLSCAASGFEFRTYGMHWVRQAPGKGLEWVGVIWYDGSNTHYADSVKGRFTITRDNSKNTLNLQMNSLRAEDTAVYYCVRAPQWYLTAEAFDLWGQGTMVTVSS VL: SYVLTQPPSVSVAPGETATITCGGNLIGARLVHWYQQKPGQAPVLVVYDDSDRPSRIPERFSGSNIGNTATLTIEDVEAGDEADYYCQVWDYSSNTYVFGGGTKLTVL",0.0421
8,"BDG38.119 (antibody, V domains shown) VH: QMQLVESGGGVVQPGRSLRLSCAASGFEFRTYGMHWVRQAPGKGLEWVGVIWYDGSNTHYADSVKGRFTITRDNSKNTLNLQMNSLRAEDTAVYYCVRAPQWYLTAEAFDLWGQGTMVTVSS VL: SYILTQPPSVSVAPGETATITCGGNLIGARLVHWYQQKPGQAPVLVIYDDSDRPSRIPERFSGSNIGNTATLTISRVEEGDEADYYCQVWDYSSNTYVFGGGTKLTVL",0.0662
9,"BDG38.095 (antibody, V domains shown) VH: QMQLVESGGGVVQPGRSLTLSCAASGFEFRTYGMHWVRQAPGKGLEWVGVIWYDGSATHYADSVKGRFTITRDNSKNTLNLQMNSLRAEDTAVYYCVRAPQWYLTAEAFDLWGQGTMVTVSS VL: SYVLTQPPSVSVAPGQTATITCGGALIGSRLVHWYQQKPGQAPVLVVYDDSDRPSRIPERFSGSNIGNTATLTISRVEEGDEADYYCQVWDYYSDSYVFGGGTKLTVL",0.0822
10,"BDG38.113 (antibody, V domains shown) VH: QMQLVESGGGVVQPGRSLTLSCAASGFEFRTYGMHWVRQAPGKGLEWVGVIWYDGSNTHYADSVKGRFTITRDNSKNTLNLQMNSLRAEDTAVYYCVRAPQWYLTAEAFDLWGQGTMVTVSS VL: SYVLTQPPSVSVAPGETATITCGGNLIGARLVHWYQQKPGQAPVLVIYDDSDRPSRIPERFSGSNIGNTATLTIEDVEEGDEADYYCQVWDYSSDSYVFGGGTKLTVL",0.0284
11,"BDG38.111 (antibody, V domains shown) VH: QMQLVESGGGVVQPGRSLTLSCAASGFEFRTYGMHWVRQAPGKGLEWVGVIWDDGSATHYADSVKGRFTITRDNSKNTLNLQMNSLRVEDTAVYYCVRAPQWYLTAEAFDLWGQGTMVTVSS VL: SYVLTQPPSVSVAPGETATITCGGALIGARLVHWYQQKPGQAPVLVVYDDSDRPSRIPERFSGSNIGNTATLTISRVEAGDEADYYCQVWDYYANSYVFGGGTKLTVL",0.0545
12,"BDG38.093 (antibody, V domains shown) VH: QMQLVESGGGVVQPGRSLTLSCAASGFEFRTYGMHWVRQAPGKGLEWVGVIWYDGSNTHYADSVKGRFTITRDNSKNTLNLQMNSLRAEDTAVYYCVRAPQWYLTAEAFDLWGQGTMVTVSS VL: SYVLTQPPSVSVAPGQTARITCGGNLIGARLVHWYQQKPGQAPVLVIYDDSDRPSRIPERFSGSNIGNTATLTIERVEEGDEADYYCQVWDYSADSYVFGGGTKLTVL",0.0402
13,"BDG38.103 (antibody, V domains shown) VH: QMQLVESGGGVVQPGRSLRLSCAASGFEFRTYGMHWVRQAPGKGLEWVGVIWYDGSNTHYADSVKGRFTITRDNSKNTLNLQMNSLRVEDTAVYYCVRAPQWYLTAEAFDLWGQGTMVTVSS VL: SYVLTQPPSVSVAPGQTATITCGGNLIGARLVHWYQQKPGQAPVLVVYDDSDRPSRIPERFSGSNIGNTATLTISDVEEGDEADYYCQVWDYYSNSYVFGGGTKLTVL",0.084
14,"BDG38.104 (antibody, V domains shown) VH: QMQLVESGGGVVQPGRSLTLSCAASGFEFRTYGMHWVRQAPGKGLEWVGVIWYDGSATHYADSVKGRFTITRDNSKNTLNLQMNSLRAEDTAVYYCVRAPQWYLTAEAFDLWGQGTMVTVSS VL: SYILTQPPSVSVAPGETATITCGGNLIGARLVHWYQQKPGQAPVLVIYDDSDRPSRIPERFSGSNIGNTATLTIEDVEEGDEADYYCQVWDYYSDSYVFGGGTKLTVL",0.0381
15,"BDG38.097 (antibody, V domains shown) VH: QMQLVESGGGVVQPGRSLRLSCAASGFEFRTYGMHWVRQAPGKGLEWLGVIWYDGSATHYADSVKGRFTITRDNSKNTLNLQMNSLRAEDTAVYYCVRAPQWYLTAEAFDLWGQGTMVTVSS VL: SYILTQPPSVSVAPGETATITCGGNLIGARLVHWYQQKPGQAPVLVIYDDSDRPSRIPERFSGSNIGNTATLTIERVEEGDEADYYCQVWDYYSDHYVFGGGTKLTVL",0.0464
16,"BDG38.101 (antibody, V domains shown) VH: QMQLVESGGGVVQPGRSLRLSCAASGFEFRTYGMHWVRQAPGKGLEWVGVIWYDGSATHYADSVKGRFTITRDNSKNTLNLQMNSLRVEDTAVYYCVRAPQWYLTAEAFDLWGQGTMVTVSS VL: SYILTQPPSVSVAPGETATITCGGNLIGARLVHWYQQKPGQAPVLVIYDDSDRPSRIPERFSGSNIGNTATLTISRVEEGDEADYYCQVWDYSSNTYVFGGGTKLTVL",0.0403
17,"BDG38.108 (antibody, V domains shown) VH: QMQLVESGGGVVQPGRSLRLSCAASGFEFRTYGMHWVRQAPGKGLEWVGVIWYDGSNTHYADSVKGRFTITRDNSKNTLNLQMNSLRAEDTAVYYCVRAPQWYLTAEAFDLWGQGTMVTVSS VL: SYILTQPPSVSVAPGETATITCGGNLIGARLVHWYQQKPGQAPVLVIYDDSDRPSRIPERFSGSNIGNTATLTISDVEEGDEADYYCQVWDYYSNSYVFGGGTKLTVL",0.0659
18,"BDG38.105 (antibody, V domains shown) VH: QMQLVESGGGVVQPGRSLTLSCAASGFEFRTYGMHWVRQAPGKGLEWVGVIWYDGSNTHYADSVKGRFTITRDNSKNTLNLQMNSLRVEDTAVYYCVRAPQWYLTAEAFDLWGQGTMVTVSS VL: SYVLTQPPSVSVAPGETATITCGGNLIGARLVHWYQQKPGQAPVLVIYDDSDRPSRIPERFSGSNIGNTATLTIERVEAGDEADYYCQVWDYYSNSYVFGGGTKLTVL",0.134
19,"BDG38.085 (antibody, V domains shown) VH: QMQLVESGGGVVQPGRSLTLSCAASGFEFRTYGMHWVRQAPGKGLEWVGVIWYDGSNTHYADSVKGRFTITRDNSKNTLNLQMNSLRVEDTAVYYCVRAPQWYLTAEAFDLWGQGTMVTVSS VL: SYVLTQPPSVSVAPGETATITCGGNLIGARLVHWYQQKPGQAPVLVIYDDSDRPSRIPERFSGSNIGNTATLTIERVEAGDEADYYCQVWDYSSNSYVFGGGTKLTVL",0.0236
20,"BDG38.114 (antibody, V domains shown) VH: QMQLVESGGGVVQPGRSLTLSCAASGFEFRTYGMHWVRQAPGKGLEWVGVIWYDGSNTHYADSVKGRFTITRDNSKNTLNLQMNSLRVEDTAVYYCVRAPQWYLTAEAFDLWGQGTMVTVSS VL: SYILTQPPSVSVAPGQTATITCGGNLIGARLVHWYQQKPGQAPVLVIYDDSDRPSRIPERFSGSNIGNTATLTIEDVEEGDEADYYCQVWDYSANSYVFGGGTKLTVL",0.0989
21,"BDG38.099 (antibody, V domains shown) VH: QMQLVESGGGVVQPGRSLRLSCAASGFEFRTYGMHWVRQAPGKGLEWVGVIWYDGSNTHYADSVKGRFTITRDNSKNTLNLQMNSLRAEDTAVYYCVRAPQWYLTAEAFDLWGQGTMVTVSS VL: SYILTQPPSVSVAPGETARITCGGNLIGARLVHWYQQKPGQAPVLVIYDDSDRPSRIPERFSGSNIGNTATLTIEDVEEGDEADYYCQVWDYSSDSYVFGGGTKLTVL",0.0601
